Test [1] addresses TOX (UniProt Q66JW3). Briefly: anti-TOX IP from EL4 cells, mass spectrometry, MiST analysis.
Test [2] deals with TOX (UniProt Q66JW3). Briefly: anti-TOX IP from EL4 nuclear extract, LC-MS/MS, MiST analysis.
TOX, sequence (Q66JW3 whole entry): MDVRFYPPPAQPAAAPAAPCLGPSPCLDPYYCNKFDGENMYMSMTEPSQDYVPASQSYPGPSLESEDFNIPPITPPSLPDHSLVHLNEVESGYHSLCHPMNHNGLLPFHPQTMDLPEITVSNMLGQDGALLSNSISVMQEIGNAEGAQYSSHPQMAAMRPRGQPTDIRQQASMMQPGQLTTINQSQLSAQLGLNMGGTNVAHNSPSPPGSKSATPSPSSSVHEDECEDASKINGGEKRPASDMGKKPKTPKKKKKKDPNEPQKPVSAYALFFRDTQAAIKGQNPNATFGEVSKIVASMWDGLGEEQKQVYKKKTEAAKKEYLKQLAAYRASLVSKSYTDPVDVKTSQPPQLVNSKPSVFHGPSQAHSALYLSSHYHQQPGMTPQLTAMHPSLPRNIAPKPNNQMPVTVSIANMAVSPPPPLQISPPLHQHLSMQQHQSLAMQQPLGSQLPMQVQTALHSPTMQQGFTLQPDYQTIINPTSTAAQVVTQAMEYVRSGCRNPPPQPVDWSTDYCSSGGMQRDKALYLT

In the test with TOX [1], “Aars (from UniProt Q8BGQ7 1-968) (enzyme)” had an Abundance of 4.49e-06, a MiST Score of 0.827, a Reproducibility of 0.459 and a Specificity of 1.
In the test with TOX [2], Acin1 (from UniProt Q9JIX8 1-1338) yielded an Abundance of 2.27e-05, a MiST Score of 0.77, a Reproducibility of 0.612 and a Specificity of 0.848.
In the test with TOX [1], Add3 (from UniProt Q9QYB5 2-706) displayed an Abundance of 3.22e-06, a MiST Score of 0.807, a Reproducibility of 0.394 and a Specificity of 1.
Consider Ahnak, for which, in the test with TOX [1], the Abundance was found to be 6.22e-06, the MiST Score stood at 0.812, the Reproducibility is 0.497 and the Specificity turned out to be 0.961.
In the case of Ap3b1 (from UniProt Q9Z1T1 1-1105), in the test with TOX [2], the Abundance came out at 4.13e-06, the MiST Score turned out to be 0.778, the Reproducibility was found to be 0.696 and the Specificity amounted to 0.821.
In the test with TOX [1], Ap3d1 (from UniProt O54774 2-1199) showed an Abundance of 1.02e-06, a MiST Score of 0.817, a Reproducibility of 0.427 and a Specificity of 1.
In the test with TOX [2], BC005685 returned an Abundance of 0.000234, a MiST Score of 0.779, a Reproducibility of 0.959 and a Specificity of 0.705.
In the test with TOX [2], Bag6 (from UniProt Q9Z1R2 1-1154) registered an Abundance of 1.4e-06, a MiST Score of 0.782, a Reproducibility of 0.765 and a Specificity of 0.797.
As to Baz1a (from UniProt O88379 1-1555), in the test with TOX [1], the Abundance amounted to 4.09e-07, the MiST Score was 0.825, the Reproducibility came to 0.454 and the Specificity was 1.
As to Ckap5 (from UniProt A2AGT5 1-2032), in the test with TOX [1], the Abundance worked out at 1.02e-06, the MiST Score is 0.81, the Reproducibility was determined as 0.924 and the Specificity was 0.765.
In the test with TOX [1], “Cpsf3 (from UniProt Q9QXK7 2-684) (enzyme)” yielded an Abundance of 1.17e-05, a MiST Score of 0.825, a Reproducibility of 0.871 and a Specificity of 0.811.
In the test with TOX [1], “Ddx18 (from UniProt Q8K363 1-660) (enzyme)” returned an Abundance of 4.72e-05, a MiST Score of 0.822, a Reproducibility of 0.986 and a Specificity of 0.756.
For the substance Dnaja2 (from UniProt Q9QYJ0 1-409), in the test with TOX [1], the Abundance worked out at 0.000332, the MiST Score is 0.8, the Reproducibility came out at 0.946 and the Specificity is 0.742.
In the test with TOX [1], “Dnmt1 (from UniProt P13864 1-1620) (enzyme)” came in with an Abundance of 4.05e-06, a MiST Score of 0.814, a Reproducibility of 0.929 and a Specificity of 0.77.
In the test with TOX [1], Dst (from UniProt Q91ZU6 1-7393) displayed an Abundance of 1.97e-08, a MiST Score of 0.804, a Reproducibility of 0.385 and a Specificity of 1.
In the test with TOX [1], Ep400 (from UniProt Q8CHI8 1-3072) came in with an Abundance of 2.31e-06, a MiST Score of 0.825, a Reproducibility of 0.451 and a Specificity of 1.
The matching figures for Ipo4 (from UniProt Q8VI75 1-1082): 1.65e-06, 0.826, 0.94 and 0.782.
In the test with TOX [1], Isy1 (from UniProt Q69ZQ2 1-285) displayed an Abundance of 3.22e-05, a MiST Score of 0.811, a Reproducibility of 0.856 and a Specificity of 0.797.
In the test with TOX [1], LRWD1 (from UniProt Q8BUI3 1-648) showed an Abundance of 9.87e-06, a MiST Score of 0.803, a Reproducibility of 0.965 and a Specificity of 0.737.
In the test with TOX [1], Lmnb1 (from UniProt P14733 2-585) showed an Abundance of 1.67e-05, a MiST Score of 0.822, a Reproducibility of 0.964 and a Specificity of 0.766.
As for Lrrfip1 (from UniProt Q3UZ39 2-729), in the test with TOX [1], the Abundance stood at 8.42e-06, the MiST Score came out at 0.817, the Reproducibility amounted to 0.996 and the Specificity was 0.743.
In the test with TOX [1], “Nmt1 (from UniProt O70310 1-496) (enzyme)” came in with an Abundance of 6.96e-06, a MiST Score of 0.821, a Reproducibility of 0.948 and a Specificity of 0.772.
For the substance Nup98 (from UniProt Q6PFD9 1-880), in the test with TOX [1], the Abundance worked out at 5.87e-07, the MiST Score was determined as 0.803, the Reproducibility was found to be 0.381 and the Specificity was 1.
The matching figures for “Otud4 (from UniProt B2RRE7 1-1107) (enzyme)”: 9.24e-07, 0.818, 0.993 and 0.747.
Turning to “Parp2 (from UniProt O88554 1-559) (enzyme)”, in the test with TOX [1], the Abundance was 2.87e-06, the MiST Score turned out to be 0.827, the Reproducibility was determined as 0.46 and the Specificity stood at 1.
In the test with TOX [1], Pds5a (from UniProt Q6A026 1-1332) came in with an Abundance of 1.76e-06, a MiST Score of 0.824, a Reproducibility of 0.865 and a Specificity of 0.813.
The matching figures for Pds5b (from UniProt Q4VA53 1-1446): 2.47e-06, 0.807, 0.845 and 0.797.
“Ptpn11 (from UniProt P35235 2-593) (enzyme)”: in the test with TOX [1], the Abundance was 4.22e-05, the MiST Score worked out at 0.808, the Reproducibility was determined as 0.396 and the Specificity came to 1.
The matching figures for “Rars (from UniProt Q9D0I9 1-660) (enzyme)”: 4.81e-06, 0.797, 0.98 and 0.721.
As to Rftn1 (from UniProt Q6A0D4 2-554), in the test with TOX [1], the Abundance was determined as 4.96e-06, the MiST Score came to 0.8, the Reproducibility was found to be 0.37 and the Specificity came to 1.
The matching figures for Rpa2 (from UniProt Q62193 1-270): 0.000292, 0.814, 0.977 and 0.747.
Regarding “Rpl14; Rpl14-ps1 (from UniProt Q9CR57 1-217)”, in the test with TOX [1], the Abundance was 0.00405, the MiST Score turned out to be 0.797, the Reproducibility is 0.997 and the Specificity was 0.714.
In the test with TOX [1], Rps23 (from UniProt P62267 1-143) yielded an Abundance of 0.00479, a MiST Score of 0.807, a Reproducibility of 0.997 and a Specificity of 0.728.
Turning to Sfxn1 (from UniProt Q99JR1 2-322), in the test with TOX [1], the Abundance came out at 3.71e-05, the MiST Score worked out at 0.827, the Reproducibility came out at 0.954 and the Specificity is 0.777.
The matching figures for Srsf5 (from UniProt O35326 1-269): 0.000505, 0.807, 0.996 and 0.729.
For Ssb (from UniProt P32067 1-415) the same measures were 3.74e-05, 0.809, 0.807 and 0.817.
Consider Stau1 (from UniProt Q9Z108 1-487), for which, in the test with TOX [1], the Abundance was determined as 1.96e-05, the MiST Score came to 0.825, the Reproducibility amounted to 0.951 and the Specificity turned out to be 0.776.
For “Supt16; Supt16h (from UniProt Q920B9 2-1047)”, in the test with TOX [1], the Abundance was determined as 4.95e-06, the MiST Score was 0.818, the Reproducibility stood at 0.8 and the Specificity turned out to be 0.833.
In the test with TOX [1], Tbl1x (from UniProt Q9QXE7 2-527) had an Abundance of 5.34e-06, a MiST Score of 0.825, a Reproducibility of 0.453 and a Specificity of 1.
In the test with TOX [1], Tdrd3 (from UniProt Q91W18 1-743) came in with an Abundance of 8.62e-06, a MiST Score of 0.815, a Reproducibility of 0.627 and a Specificity of 0.907.
The matching figures for Tfip11 (from UniProt Q9ERA6 1-838): 5.43e-06, 0.826, 0.972 and 0.767.
Regarding Tpx2 (from UniProt A2APB8 1-745), in the test with TOX [1], the Abundance was 1.91e-05, the MiST Score amounted to 0.805, the Reproducibility was found to be 0.992 and the Specificity is 0.727.
In the test with TOX [1], Tra2b (from UniProt P62996 2-288) displayed an Abundance of 3.65e-05, a MiST Score of 0.803, a Reproducibility of 0.381 and a Specificity of 1.
Wrnip1 (from UniProt Q91XU0 1-660): in the test with TOX [1], the Abundance was found to be 3.59e-06, the MiST Score worked out at 0.812, the Reproducibility is 0.41 and the Specificity stood at 1.
In the case of “Yars (from UniProt Q91WQ3 1-528) (enzyme)”, in the test with TOX [1], the Abundance was determined as 2.51e-06, the MiST Score amounted to 0.802, the Reproducibility was determined as 0.379 and the Specificity stood at 1.
In the test with TOX [1], Ythdf1 (from UniProt P59326 2-559) yielded an Abundance of 3.5e-05, a MiST Score of 0.811, a Reproducibility of 0.833 and a Specificity of 0.809.
Regarding Zc3h11a (from UniProt Q6NZF1 1-792), in the test with TOX [1], the Abundance worked out at 1.22e-05, the MiST Score was determined as 0.801, the Reproducibility amounted to 0.957 and the Specificity worked out at 0.737.

The record behind these values is US20210071139A1.
